Target: MDM2(S395D) S395D (UniProt Q00987)
Experiment: RNA co-IP (anti-MDM2 4B2) with RT-qPCR
Conditions: RNA co-IP: 50 mM Tris pH 7.5, 150 mM NaCl, 0.01 mM ZnSO4, 2 mM MgCl2, 0.02 mg/mL yeast tRNA, 0.2 mg/mL BSA, room temperature, pull-down overnight at 4 C

Chain of MDM2(S395D) S395D (Q00987 whole entry S395D): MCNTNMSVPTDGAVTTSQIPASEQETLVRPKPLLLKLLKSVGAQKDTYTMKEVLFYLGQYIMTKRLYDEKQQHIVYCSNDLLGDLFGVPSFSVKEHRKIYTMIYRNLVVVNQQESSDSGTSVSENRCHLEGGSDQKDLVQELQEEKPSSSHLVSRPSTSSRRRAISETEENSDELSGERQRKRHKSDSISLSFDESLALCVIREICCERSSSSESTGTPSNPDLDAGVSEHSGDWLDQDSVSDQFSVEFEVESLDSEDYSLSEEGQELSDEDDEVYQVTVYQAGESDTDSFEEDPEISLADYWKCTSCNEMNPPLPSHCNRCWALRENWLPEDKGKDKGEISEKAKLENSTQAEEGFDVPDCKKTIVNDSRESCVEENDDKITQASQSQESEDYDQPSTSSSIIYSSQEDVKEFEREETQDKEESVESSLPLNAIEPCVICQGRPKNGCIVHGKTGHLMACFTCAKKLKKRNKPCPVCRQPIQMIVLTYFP

## AUGGAGGAGCCGCAGUCAGAUCCUAGCGUCGAGCCCCCUCUGAGUCAGGAAACAUUUUCAGACCUAUGGAAACUACUUCCUGAAAACAACGUUCUGUCCCCCUUGCCGUCCCAAGCAAUGGAUGAUUUGAUGCUGUCCCCGGACGAUAUUGAACAAUGGUUCACUGAAGACCCAGGUCCAGAUGAAGCUCCCAGAAUGCCAGAGGCUGCUCCCCCCGUGGCCCCUGCACCAGCAGCUCCU [p53 mRNA +1 to +240 WT]
  binding signal (fold increase over no BOX-I oligo): 60

Reference: paper PMC12510224
